B1: bemarituzumab (antibody, human IgG1, kappa, V domains shown)
VH: QVQLVQSGAEVKKPGSSVKVSCKASGYIFTTYNVHWVRQAPGQGLEWIGSIYPDNGDTSYNQNFKGRATITADKSTSTAYMELSSLRSEDTAVYYCARGDFAYWGQGTLVTVSS
VL: DIQMTQSPSSLSASVGDRVTITCKASQGVSNDVAWYQQKPGKAPKLLIYSASYRYTGVPSRFSGSGSGTDFTFTISSLQPEDIATYYCQQHSTTPYTFGQGTKLEIKR
B2: antibody F6B6 (murine chimeric anti-FGFR2 antibody) (antibody, human IgG1, kappa, V domains shown)
VH: QVQLKQSGPGLVQPSQSLSITCTVSGFSLTNYGVHWVRQSPGKGLEWLGVIWSDGSTDYDAAFISRLSISTDNSKSQVFFKMNSLQAADTAIYYCARKGDYDYDNYAMDYWGQGTSVTVSS
VL: DVVITQSPATLSVTPGDSVSLSCRASQSISNNLHWYQQKSHESPRLLIKYASQSISGIPSRFSGSGSGTDFTLSINSVETEDFGMYFCQQSNSWPLTFGAGTKLELKR
B3: humanized monoclonal antibody huA1B2-3 (antibody, human IgG1, kappa, V domains shown)
VH: EVQLVQSGAEVKKPGATVKISCKASGFNIKDYYMHWVQQAPGKGLEWMGRIDPEDGDTEYAEKFQGRVTITADTSTNTAYMELSSLRSEDTAVYYCTTYYYVSTYEDYWGQGTTVTVSS
VL: EIVLTQSPATLSLSPGERATLSCRASSSVSHMHWYQQKPGQAPKLLIYSTSNLASGVPARFSGSGSGTDYTLTISSLEPEDFAVYYCHHWSSWTFGGGTKVEIKR
B4: antibody D12D8 (murine chimeric anti-FGFR2 antibody) (antibody, human IgG1, kappa, V domains shown)
VH: QVQLQQSGAELARPGASVKLSCKASGYTFTNYGISWVKQRTGQGLEWIGEIYPRSGNTYYNEKFKGKATLTADKSSSTAYMELRSLTSEDSAVYFCARGDYSNSDYWGQGTTLTVSS
VL: DIQMTQTTSSLSASLGDRVTISCRASQDITDHLNWYQQKPDGTVKLLIYYTSRLHSGVPSRFSGSGSGTDYSLTISNLEQEDIATYFCQQGNTLPRTFGGGTKLEIKR
B5: antibody A1B2 (murine chimeric anti-FGFR2 antibody) (antibody, human IgG1, kappa, V domains shown)
VH: EVQLQQSGAELVRPGASVKLSCTASGFNIKDYYMHWVKQRPEQGLEWIGRIDPEDGDTEYAPKFQGKATMTADTSSNTAYLQLSSLTSEDTAVYYCTTYYYVSTYEDYWGQGTTLTVSS
VL: QIVLTQSPAIMSASLGEEITLTCSASSSVSHMHWYQQKSGTSPKLLIYSTSNLASGVPSRFSGSGSGTFYSLTISSVEAEDAADYYCHHWSSWTFGGGTKLEIKR
B6: antibody G11B8 (murine chimeric anti-FGFR2 antibody) (antibody, human IgG1, kappa, V domains shown)
VH: EVQLQQSGPELVKPGASVKIPCKASGYTFTDYNMDWVKQSHGKSLEWIGDINPKNGETFYNQKFKGKATLTVDRSSNTAYMELRSLTSEDTAVYFCAKRDLNWYFDYWGQGTTLTVSS
VL: DIQMTQSSSYLSVSLGGRVTITCKASDHINNWLAWYQQKPGNAPRLLISGATSLETGVPSRFSGSGSGKDYTLSITSLQTEDVATYYCQQYWSTPWTFGGGTKLEIKR
B7: antibody H3F7-a (murine chimeric anti-FGFR2 antibody) (antibody, human IgG1, kappa, V domains shown)
VH: EVQLQQSGPELVKPGASVKIPCKASGYTFTDYNMDWVKQSHGKSLEWIGDINPKNGETFYNQKFKGKATLTVDRSSSTAYMELRSLTSEDTAVYFCAKRDLNWYFDYWGQGTTLTVSS
VL: DIQMTQSSSYLSVSLGGRVTITCKASDHINNWLAWYQQKPGNAPRLLISGATSLETGVPSRFSGSGSGKDYTLSITSLQTEDVATYYCQQYWSTPWTFGGGTKLEIKR

Tests used:
[1] = biological target: human FGFR2-his protein (huFGFR2-his) (human); test: BLI epitope binning on FGFR2-his (HISK sensor), 200 nM antibodies; competitor: huA1B2-3
[2] = biological target: human FGFR2-his protein (huFGFR2-his) (human); test: BLI epitope binning on FGFR2-his (HISK sensor), 200 nM antibodies; competitor: bemarituzumab
[3] = biological target: human FGFR2-his protein (huFGFR2-his) (human); test: BLI epitope binning on FGFR2-his (HISK sensor), 200 nM antibodies; competitor: huG11B8-5
[4] = biological target: human FGFR2 on cells (KATO-III gastric cancer cells; SNU-16 cells; Ba/F3 cells engineered to express human FGFR2b) (human) (UniProt P21802); test: flow cytometry on KATO-III cells expressing human FGFR2

human FGFR2-his protein (huFGFR2-his) (human), sequence (chain, as listed by the source limits assumed): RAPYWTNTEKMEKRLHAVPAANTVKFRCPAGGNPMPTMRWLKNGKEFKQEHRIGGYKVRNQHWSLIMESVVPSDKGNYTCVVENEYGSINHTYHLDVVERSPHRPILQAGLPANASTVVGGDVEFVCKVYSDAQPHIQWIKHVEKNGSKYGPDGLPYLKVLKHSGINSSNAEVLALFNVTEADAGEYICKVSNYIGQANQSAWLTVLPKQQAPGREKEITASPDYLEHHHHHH

| Binder | epitope binning value (%), not given [1] | epitope binning value (%), not given [2] | epitope binning value (%), not given [3] | EC50 [4] |
| --- | --- | --- | --- | --- |
| B1 | 106% | 7.8% | 36.8% | – |
| B2 | – | – | – | 14.4 nM |
| B3 | 10.2% | 95.7% | 42.6% | – |
| B4 | – | – | – | 7.37 nM |
| B5 | – | – | – | 0.336 nM |
| B6 | – | – | – | 0.949 nM |
| B7 | – | – | – | 1.09 nM |

— patent publication EP4786494A1
